Three molecules from patent publication US20220289819A1 (GREEN CROSS, published 2022) can be followed below.

The chains are these.
B3: hCEACAM1-Fc (Fc fusion)
chain: QLTTESMPFNVAEGKEVLLLVHNLPQQLFGYSWYKGERVDGNRQIVGYAIGTQQATPGPANSGRETIYPNASLLIQNVTQNDTGFYTLQVIKSDLVNEEATGQFHVYPELPKPSISSNNSNPVEDKDAVAFTCEPETQDTTYLWWINNQSLPVSPRLQLSNGNRTLTLLSVTRNDTGPYECEIQNPVSANRSDPVTLNVTYGPDTPTISPSDTYYRPGANLSLSCYAASNPPAQYSWLINGTFQQSTQELFIPNITVNNSGSYTCHANNSVTGCNRTTVKTIIVTELSPVVAKPQIKASKTTVTGDKDSVNLTCSTNDTGISIRWFFKNQSLPSSERMKLSQGNTTLSINPVKREDAGTYWCEVFNPISKNQSDPIMLNVNYNALPQENGLSPG
modifications: biotin-labeled when used as the soluble partner (sites not given)
notes: also called biotin-labeled hCEACAM1-Fc; not shown: pr

Data set [1] has as its target T1, hCEACAM1 (R&D Systems, Cat. No. 2244-CM) (human, UniProt P13688 35-428).
T1 construct: Anti-His (His1K) biosensors were used, which implies a His tag
T1 sequence: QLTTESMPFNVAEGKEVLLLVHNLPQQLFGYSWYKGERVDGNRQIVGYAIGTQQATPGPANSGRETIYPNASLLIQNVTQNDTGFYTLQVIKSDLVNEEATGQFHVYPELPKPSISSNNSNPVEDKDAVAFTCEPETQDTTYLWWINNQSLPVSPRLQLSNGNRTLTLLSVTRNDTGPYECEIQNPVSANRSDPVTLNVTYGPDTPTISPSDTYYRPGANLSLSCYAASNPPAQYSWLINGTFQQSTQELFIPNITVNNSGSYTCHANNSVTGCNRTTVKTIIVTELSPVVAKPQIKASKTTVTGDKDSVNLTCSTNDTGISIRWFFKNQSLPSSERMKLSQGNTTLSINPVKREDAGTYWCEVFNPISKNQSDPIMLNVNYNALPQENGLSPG
Kind of data set: not stated at this place; presumably the BLI of Experimental Example 4; summary statement in the description, no assay named.

The target in data set [2] is B3. Kind of data set: competition ELISA: antibody titrated from 60 µg/mL, mixed with biotin-labeled hCEACAM1-Fc, added to coated hCEACAM1-Fc. Here is the method: (§1) In another 96-well-plate, anti-CEACAM1 antibody was serially diluted 2-fold starting from a concentration of 60 μg/ml, and added into 11 wells, and the last well was added only with PBS to which 1% BSA was added, and then biotin-labeled hCEACAM1-Fc was added in the same amount as the anti-CEACAM1 antibody (which was diluted to 0.5 μg/mL), and reacted at room temperature for 1 hour. After 1 hour, 100 μL each of a mixture of the anti-CEACAM1 antibody and the biotin-labeled hCEACAM1-Fc were added to the blocked plate and reacted again at room temperature for 1 hour.
(§2) After 1 hour, each well was washed 3 times by adding 300 μL of PBS (to which 0.05% Tween 20 was added) thereto, and then streptavidin-peroxidase polymer (Sigma, S2438-250UG) was diluted at a 1:5,000 ratio in PBS (to which 1% BSA was added), 100 μL each of the resultant was added to each well, and reacted at 37° C. for 40 minutes. Each well where the reaction was completed was washed 3 times by adding 300 μL of PBS (to which 0.05% Tween 20 was added), and then 100 μL of TMB microwell peroxidase substrate (KPL, 50-76-03) was added thereto and reacted for 5 minutes. To terminate the reaction, an equal amount of sulfuric acid (Sigma-Aldrich, 339741) was added and the OD value was measured at 450 nm wavelength using an ELISA reader.

The target of data set [3] is T1, hCEACAM1 (R&D Systems, Cat. No. 2244-CM). In words: BLI (Octet QKe), hCEACAM1 on anti-His biosensor, antibody 6.25-400 nM in solution. Here is the method:
Quantitative binding strength of the anti-CEACAM1 antibody to CEACAM1 was measured using the Octet QKe (Pall ForteBio). The anti-CEACAM1 antibody was subjected to a ½ concentration dilution 6 times at a concentration of 400 nM, and the antibodies at concentrations of 400 nM, 200 nM, 100 nM, 50 nM, 25 nM, 12.5 nM, and 6.25 nM were added into a Greiner 96-well-plate (Greiner, Cat. No. 655209) in an amount of 200 μL each in a row, and the last well was added at a concentration of 0 nM. In another row, hCEACAM1 (R&D Systems, Cat. No. 2244-CM) was diluted to a concentration of […], and was added in an amount of 200 μL each in a row.
Washing buffer, neutralization buffer, and baseline buffer were diluted 10 times with Reagent/Kinetics buffer (10×) (Fortebio, Cat. No. 18-1092) and was added in an amount of 200 μL in each row, and regeneration buffer was added in an amount of 200 μL in a row. A separate Greiner 96-well-plate was prepared, and Reagent/Kinetics buffer (IX) was added in an amount of 200 μL to as many wells as the number of biosensors to be used, and the Biosensors/Anti-His(His1K) (Fortebio, Cat. No. 18)-5120) Cassette was mounted.
A general note: Biolayer interferometry detects binding as a change in optical thickness at a sensor tip.

The target in data set [4] is B3. In words: competition ELISA, hCEACAM6-Fc coated, antibody pre-mixed with biotin-labeled hCEACAM1-Fc; blocked interaction hCEACAM1-Fc/hCEACAM6-Fc. Here is the method: (§3) In another 96-well-plate, the anti-CEACAM1 antibody was serially diluted 2-fold starting from a concentration of 60 μg/mL and added into 11 wells, and the last well was added with only PBS (to which 1% BSA was added), and then biotin-labeled hCEACAM 1-Fc was added in the same amount as the diluted anti-CEACAM1 antibody to a concentration of 0.5 μg/mL, and reacted at room temperature for 1 hour. After 1 hour, 100 μL each of a mixture of the anti-CEACAM1 antibody and the biotin-labeled hCEACAM1-Fc were added to the blocked plate and reacted again at room temperature for 1 hour.
(§4) After 1 hour, each well was washed 3 times by adding 300 μL of PBS (to which 0.05% Tween 20 was added) thereto, and then streptavidin-peroxidase polymer (Sigma, S2438-250UG) was diluted at a 1:5,000 ratio in PBS (to which 1% BSA was added), and 100 μL each of the resultant was added to each well, and reacted at 37° C. for 40 minutes. Each well where the reaction was completed was washed 3 by adding 300 μL of PBS (to which 0.05% Tween 20 was added) thereto, and then 100 μL each of TMB microwell peroxidase substrate (KPL, 50-76-03) was added thereto, and reacted for 5 minutes. To terminate the reaction, an equal amount of sulfuric acid (Sigma-Aldrich, 339741) was added and the OD value was measured at 450 nm wavelength using an ELISA reader.
A general note: An ELISA detects its analyte on a solid surface through an enzyme-linked reagent.

For data set [5], the target named is B3. In words: competition ELISA: antibody titrated from 60 µg/mL, mixed with biotin-labeled hCEACAM1-Fc, added to coated hCEACAM6-Fc. Here is the method:
as §3, §4

Data set [6] addresses B3. Kind of data set: competition ELISA, hCEACAM1-Fc coated, antibody pre-mixed with hCCM1-Fc-biotin 500 ng/mL; blocked interaction hCEACAM1-Fc/hCEACAM1-Fc. As for the experimental part: as §1, §2
Data set [7] concerns the target T2, hCEACAM6-Fc (human), P40199.
T2 chain: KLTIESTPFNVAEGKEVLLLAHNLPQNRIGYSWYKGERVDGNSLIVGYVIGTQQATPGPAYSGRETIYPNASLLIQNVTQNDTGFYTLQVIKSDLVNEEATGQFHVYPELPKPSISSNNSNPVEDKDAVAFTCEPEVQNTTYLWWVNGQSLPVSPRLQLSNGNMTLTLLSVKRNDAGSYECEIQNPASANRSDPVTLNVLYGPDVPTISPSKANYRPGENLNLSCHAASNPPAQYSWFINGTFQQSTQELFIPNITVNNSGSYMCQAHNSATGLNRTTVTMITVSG
In words: ELISA, coated hCEACAM6-Fc (2.5 µg/mL), biotin-labeled hCEACAM1-Fc titrated from 150 µg/mL. The note with it: remark: other sources report otherwise.

For data set [8] the target is unchanged. Kind of data set: ELISA, hCEACAM6-Fc coated, biotin-labeled hCEACAM1-Fc titrated, streptavidin-peroxidase detection. The note with it: remark: other sources report otherwise.
Data set [9] concerns the molecule itself. In words: ELISA, coated hCEACAM1-Fc (2.5 µg/mL), biotin-labeled hCEACAM1-Fc titrated from 150 µg/mL. As for the experimental part: (§5) The hCEACAM1-Fc prepared in Example 5.1 was diluted with PBS to a concentration of 2.5 μg/mL, and then 100 μL each of the resultant was added into a NUNC immuno module (NUNC, 468667) plate and coated at 4° C. overnight. On the next day, after washing with PBS (to which 0.05% Tween 20 was added), 300 μL of PBS (to which 1% BSA was added) was added to each well of the coated plate, and blocking was performed by reacting at room temperature for 2 hours. In addition, after washing 3 times with PBS (to which 0.05% Tween 20 was added), biotin-labeled hCEACAM1-Fc was serially diluted 3-fold starting from a concentration of 150 μg/mL, and added into 11 wells in the plate coated with hCEACAM1-Fc. The last well was added only with PBS to which 1% BSA was added. The wells were reacted at 37° C. for 1 hour. After 1 hour, each well was washed 3 times by adding 300 μL of PBS (to which 0.05% Tween 20 was added), and then streptavidin-peroxidase polymer (Sigma, S2438-250UG) was diluted at a 1:5,000 ratio in PBS (to which 1% BSA was added), 100 μL each of the resultant was added into each well, and reacted at 37° C. for 40 minutes. […] To terminate the reaction, an equal amount of sulfuric acid (Sigma-Aldrich, 339741) was added and the OD value was measured at 450 nm wavelength using an ELISA reader.

Data set [10] concerns the molecule itself. In words: ELISA, hCEACAM1-Fc coated, biotin-labeled hCEACAM1-Fc titrated, streptavidin-peroxidase detection. As for the experimental part: as §5

B1: anti-CEACAM1 antibody (antibody, V domains shown)
VH: EVQLLESGGGLVQPGGSLRLSCAASGFTFSNYAMSWVRQAPGKGLEWVSVISHGGGSIYYADSVKGRLTISRDNSKNTLYLQMNSLRAEDTAVYYCARDPTKGYAPTFDYWGQGTLVTVSS
VL: QSVLTQPPSASGTPGQRVTISCSGSSSNIGNNYVSWYQQLPGTAPKLLIYADSRRPSGVPDRFSGSKSGTSASLAISGLRSEDEADYYCGAWDLSLNGYVFGGGTKLTVLG
notes: also called anti-CEACAM1 antibody according to an embodiment
For orientation: Kd means a measure of binding affinity in units of concentration. Usually IC50 stands for the point on the concentration scale where inhibition reaches its midpoint. A high value points to a need for much substance. Broadly, the koff is the rate constant with which the complex falls apart. The term kon denotes a measure of how fast the partners come together. Read a low kon as slow association. For the molecule B1, the Kd in data set [1] was determined as 3.36 nM; in [3] it was 3.39 nM. Moreover, the IC50 with hCEACAM1-Fc [2] came to 1.05 µg/mL; with hCEACAM1-Fc [5] it was 0.795 µg/mL. The same molecule came in with a koff in [3] of 0.000567 s⁻¹. For the same molecule, the kon in data set [3] turned out to be 163000 M⁻¹ s⁻¹. The figures for the “IC50 (read off the curve)” value with hCEACAM1-Fc [4] and in the data set with hCEACAM1-Fc [6] were approximately 1 µg/mL and approximately 0.8 µg/mL, respectively.

B2: hCEACAM1-Fc, P13688 35-428 (Fc fusion, not shown: a dimerising Fc or GST)
chain: QLTTESMPFNVAEGKEVLLLVHNLPQQLFGYSWYKGERVDGNRQIVGYAIGTQQATPGPANSGRETIYPNASLLIQNVTQNDTGFYTLQVIKSDLVNEEATGQFHVYPELPKPSISSNNSNPVEDKDAVAFTCEPETQDTTYLWWINNQSLPVSPRLQLSNGNRTLTLLSVTRNDTGPYECEIQNPVSANRSDPVTLNVTYGPDTPTISPSDTYYRPGANLSLSCYAASNPPAQYSWLINGTFQQSTQELFIPNITVNNSGSYTCHANNSVTGCNRTTVKTIIVTELSPVVAKPQIKASKTTVTGDKDSVNLTCSTNDTGISIRWFFKNQSLPSSERMKLSQGNTTLSINPVKREDAGTYWCEVFNPISKNQSDPIMLNVNYNALPQENGLSPG
modifications: here or on the partner: biotin-labeled when used as the soluble partner (sites not given)
B2 displayed an EC50 in data set [7] of 0.305 µg/mL. Further, the EC50 (read off the curve) in [8] is 0.3 µg/mL.
B3 yielded an EC50 in data set [9] of 0.286 µg/mL. Moreover, the “EC50 (read off the curve)” value in [10] is approximately 0.3 µg/mL.
